Source: paper PMC3673938, “Two Distinct Calmodulin Binding Sites in the Third Intracellular Loop and Carboxyl Tail of Angiotensin II (AT1A) Receptor” (PLoS ONE, 2013)

Tests used:
Details in all cases: both partners purified
[1] = biological target: T1, dansyl-calmodulin (bovine brain) (bovine, UniProt P62157 1-149, dansyl (0.18–0.34 mol of dansyl moiety per mol of CaM), site not stated); test: dansyl-CaM fluorescence emission spectrum; 106 nM dansyl-CaM, 500 nM peptide, 0.1 mM calcium, 1 hour at room temperature; excitation 340 nm, emission 425–600 nm; compared with dansyl-CaM in 10 mM EGTA
T1 construct: calmodulin, bovine brain, dansylated; also called dansyl-CaM; source: CaM purified from bovine brain (bought: Calbiochem), labelled with dansyl chloride

[2] = biological target: T1, dansyl-calmodulin (bovine brain); test: other fluorescence titration; peptides (25–2000 nM) with 147 nM dansyl-CaM, 0.1 mM calcium, 1 hour at room temperature; emission at 485 nm; apparent dissociation constants
[3] = biological target: T2, calmodulin purified from bovine brain (bovine, UniProt P62157 1-149); test: pull-down; 50 pmol GST-fusion protein with purified bovine brain CaM (50 pmol) in 250 µl of 100 mM Tris-HCl pH 7.5 with 0.1 mM CaCl2; 4°C; glutathione-sepharose 4B beads; immunoblot with anti-CaM; for the mutants density of CaM against loaded GST-fusion protein
T2 construct: calmodulin, bovine brain; also called CaM; pure bovine brain CaM; source: purified from bovine brain; bought: Calbiochem

Binder | Kd [2] [nM] | binding result [3] | other results
YGFLGKKFKKYFLQLL (also called 1-5-10 motif peptide of the carboxyl tail; source: synthetic peptide (MUSC Proteogenomics Facility, HPLC purified)) [ATct(302–317) peptide] | 79.4 | – | fold increase in dansyl-CaM fluorescence intensity at 482 nm (500 nM peptide) [1]: ~3.5 fold
YGFLGKKAKKYFLQLL (AT1A receptor carboxyl tail, amino acids 302–317, with F309A; source: synthetic peptide (MUSC Proteogenomics Facility, HPLC purified)) [ATct(302–317)F309A peptide] | 308 | – | –
YGFLGKKFKKYALQLL (AT1A receptor carboxyl tail, amino acids 302–317, with F313A; source: synthetic peptide (MUSC Proteogenomics Facility, HPLC purified)) [ATct(302–317)F313A peptide] | 388 | – | –
TSYTLIWKALKKAYEIQKNKPR (domain or fragment, also called GST-N-terminus of the i3 loop; source: E. coli BL21, purified (glutathione sepharose 4B); not shown: GST, N-terminal, kept) [GST-ATi3N(213–234)] | – | binds | –
SYTLIWKALKKAYEIQKN (also called 1–12 motif peptide of the i3 loop; source: synthetic peptide (MUSC Proteogenomics Facility, HPLC purified)) [ATi3(214–231) peptide] | 177 | – | fold increase in dansyl-CaM fluorescence intensity at 486 nm (500 nM peptide) [1]: ~3.2 fold
LNPLFYGFLGKKFKKYFLQLLKYIPPKA (domain or fragment, N-terminal part of the carboxyl tail of the AT1A receptor, amino acids 297–324; stop codon after 324A in GST-ATct(297–359); also called GST-N-terminus of carboxyl tail; source: E. coli BL21, purified (glutathione sepharose 4B); not shown: GST, N-terminal, kept) [GST-ATctN(297–324)] | – | binds | –
TSYTLIWKALKKAYEIQKNKPRNDDIFRII (domain or fragment, amplified from pcDNA3.1-AT1A receptor; cloned in pGEX-4T-1 at BamH I and EcoR I downstream of GST; also called GST-i3 loop; i3 loop of the AT1A receptor; source: E. coli BL21, purified (glutathione sepharose 4B); not shown: GST, N-terminal, kept) [GST-ATi3(213–242)] | – | binds | –
